Consider two molecules from US20170015742A1 (published 2017).

Usually Kd stands for a measure of binding affinity in units of concentration. Low readings indicate tighter binding, high ones weaker binding. In general, kon refers to the second-order rate constant of association. A low value points to slow association.

One assay addresses T1, VEGF-A (human, UniProt P15692 207-395).
T1 construct: also called hVEGF165
The assay is described as follows: Biacore SPR; DVD-Ig captured on anti-human Fc, antigen injected. Here is the method: (§1) For example, approximately 9000 RU of goat anti-human Fc specific polyclonal antibody (Thermo Fisher Scientific Inc., Rockford, Ill.) diluted in 10 mM sodium acetate (pH 4.5) is directly immobilized across a CM5 research grade biosensor chip using a standard amine coupling kit according to manufacturer's instructions and procedures at 25 μg/ml. Unreacted moieties on the biosensor surface were blocked with ethanolamine. For kinetic analysis, rate equations derived from the 1:1 Langmuir binding model were fitted simultaneously to multiple antigen injections (using global fit analysis) with the use of Scrubber 2 (BioLogic Software), Biacore Biaevaluation 4.0.1 software or Biacore T100 Evaluation software. Purified antibodies or DVD-Ig molecules were diluted in running buffer for capture across goat anti-human Fc reaction surfaces. Antibodies or DVD-Ig molecules to be captured as a ligand (1 μg/ml) were injected over reaction matrices at a flow rate of 10 μl/minute. During the assay, all measurements were referenced against the capture surface alone (i.e., with no captured antibody or DVD-Ig molecule). […] The equilibrium dissociation constant KD (M) of the reaction between antibodies and the target antigen was then calculated from the kinetic rate constants by the following formula: KD=Koff/Kₒₙ. Binding was recorded as a function of time and kinetic rate constants were calculated.
On the technique in general: SPR reads the build-up and loss of mass on a sensor chip optically.

Another assay addresses T2, PDGF-BB (human, UniProt P01127 82-190, limits assumed).
T2 construct: also called human PDGF-BB; hPDGF-BB
The description is as above. On the procedure: as §1

T1 sequence (P15692 other isoform, or with tags, fused parts or gaps limits assumed): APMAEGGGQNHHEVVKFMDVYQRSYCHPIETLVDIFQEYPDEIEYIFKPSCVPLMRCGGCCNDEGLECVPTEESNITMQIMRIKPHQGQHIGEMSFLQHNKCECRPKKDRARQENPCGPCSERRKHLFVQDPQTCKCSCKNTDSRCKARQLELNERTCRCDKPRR
T2 sequence (P01127 82-190 limits assumed): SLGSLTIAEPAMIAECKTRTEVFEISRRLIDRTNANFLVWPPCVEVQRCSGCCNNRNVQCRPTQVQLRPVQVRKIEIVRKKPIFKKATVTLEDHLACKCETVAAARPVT

B1: 4G8.3-SL-9E8.4E (PR-1575834) (bispecific antibody, human IgG1, kappa, L234A L235A)
heavy: EVQLVQSGSELKKPGASVKVSCKASGYTFTNYGMYWVRQAPGQGLEWMGWINTETGKPTYADDFKGRFVFSLDTSVSTAYLQISSLKAEDTAVYYCARTNYYYRSYIFYFDYWGQGTMVTVSSASTKGPEVTLRESGPALVKPTQTLTLTCTFSGFSLSTYGMGVGWIRQPPGKALEWLANIWWDDDKYYNPSLKNRLTISKDTSKNQVVLTMTNMDPVDTATYYCARIESIGTTYSFDYWGQGTMVTVSSASTKGPSVFPLAPSSKSTSGGTAALGCLVKDYFPEPVTVSWNSGALTSGVHTFPAVLQSSGLYSLSSVVTVPSSSLGTQTYICNVNHKPSNTKVDKKVEPKSCDKTHTCPPCPAPEAAGGPSVFLFPPKPKDTLMISRTPEVTCVVVDVSHEDPEVKFNWYVDGVEVHNAKTKPREEQYNSTYRVVSVLTVLHQDWLNGKEYKCKVSNKALPAPIEKTISKAKGQPREPQVYTLPPSREEMTKNQVSLTCLVKGFYPSDIAVEWESNGQPENNYKTTPPVLDSDGSFFLYSKLTVDKSRWQQGNVFSCSVMHEALHNAYTQKSLSLSPGK
light: DTVLTQSPATLSLSPGERATLSCRASESVSTHMHWYQQKPGQAPRLLIYGASNLESGVPARFSGSGSGTDFTLTISSLEPEDFAVYFCQQSWNDPFTFGQGTKLEIKRTVAAPSVFIFPPEFVLTQSPGTLSLSPGERATLSCERSSGDIGESYVSWYQQKPGQAPRLVIYADDQRPSGIPDRFSGSGSGTDFTLTISRLEPEDFAVYYCQSYDINIDIVFGGGTKVEIKRTVAAPSVFIFPPSDEQLKSGTASVVCLLNNFYPREAKVQWKVDNALQSGNSQESVTEQDSKDSTYSLSSTLTLSKADYEKHKVYACEVTHQGLSSPVTKSFNRGEC
notes: DVD-Ig: outer hBDB-4G8.3 (VEGF), inner hBDI-9E8.4E (PDGF), linkers HG-short/LK-long; Human IgG1 L234A, L235A, H435A with kappa
Take B1: the figures for the Kd with VEGF-A and with PDGF-BB were 0.01 nM and 0.015 nM, respectively. Also, the figures for the kon with VEGF-A and with PDGF-BB were 6.2e+06 M⁻¹ s⁻¹ and 1.7e+07 M⁻¹ s⁻¹, respectively.

B2: 9A8.12-GS-9E8.4E (PR-1577165) (bispecific antibody, human IgG1, kappa, L234A L235A)
heavy: EVQLVQSGAEVKKPGASVKVSCKASGYTFTNYGMYWVRQAPGQGLEWMGWINTETGKPIYADDFKGRVTMTTDTSTSTAYMELRSLRSDDTAVYYCARVDYDGSFWFAYWGQGTLVTVSSGGGGSGGGGSEVTLRESGPALVKPTQTLTLTCTFSGFSLSTYGMGVGWIRQPPGKALEWLANIWWDDDKYYNPSLKNRLTISKDTSKNQVVLTMTNMDPVDTATYYCARIESIGTTYSFDYWGQGTMVTVSSASTKGPSVFPLAPSSKSTSGGTAALGCLVKDYFPEPVTVSWNSGALTSGVHTFPAVLQSSGLYSLSSVVTVPSSSLGTQTYICNVNHKPSNTKVDKKVEPKSCDKTHTCPPCPAPEAAGGPSVFLFPPKPKDTLMISRTPEVTCVVVDVSHEDPEVKFNWYVDGVEVHNAKTKPREEQYNSTYRVVSVLTVLHQDWLNGKEYKCKVSNKALPAPIEKTISKAKGQPREPQVYTLPPSREEMTKNQVSLTCLVKGFYPSDIAVEWESNGQPENNYKTTPPVLDSDGSFFLYSKLTVDKSRWQQGNVFSCSVMHEALHNAYTQKSLSLSPGK
light: DTQLTQSPSSLSASVGDRVTITCRASESVSTVIHWYQQKPGKQPKLLIHGASNLESGVPSRFSGSGSGTDFTLTISSLQPEDFATYFCQQHWNDPPTFGQGTKLEIKRGGSGGGGSGEFVLTQSPGTLSLSPGERATLSCERSSGDIGESYVSWYQQKPGQAPRLVIYADDQRPSGIPDRFSGSGSGTDFTLTISRLEPEDFAVYYCQSYDINIDIVFGGGTKVEIKRTVAAPSVFIFPPSDEQLKSGTASVVCLLNNFYPREAKVQWKVDNALQSGNSQESVTEQDSKDSTYSLSSTLTLSKADYEKHKVYACEVTHQGLSSPVTKSFNRGEC
notes: DVD-Ig: outer hBEW-9A8.12 (VEGF), inner hBDI-9E8.4E (PDGF), linkers GS-H10/GS-L10; Human IgG1 L234A, L235A, H435A with kappa
For the molecule B2, in the assay with VEGF-A, binding was characterised by a dissociation constant (Kd) of 0.18 nM and the kon was determined as 770000 M⁻¹ s⁻¹. Further, in the assay with PDGF-BB, the affinity, expressed as Kd, was 0.0081 nM and the kon was 3.3e+07 M⁻¹ s⁻¹.
